Measured values reported in paper PMC3433420.
Where “and” joins values, the source holds several entries; their conditions need not be identical. Equal values may be shown once.

What was measured:
GRB7 (Homo sapiens) = GRB7 (Homo sapiens) (UniProt Q14451); details: cited from earlier work
PIK3R3-N (Homo sapiens) = PIK3R3-N (Homo sapiens) (UniProt Q92569); details: cited from earlier work
TNS4 (Homo sapiens) = TNS4 (Homo sapiens) (UniProt Q8IZW8); details: cited from earlier work
PLCG1-C (Homo sapiens) = PLCG1-C (Homo sapiens) (UniProt P19174); details: cited from earlier work
PLCG1-C (Homo sapiens), sequence (P19174 545-761): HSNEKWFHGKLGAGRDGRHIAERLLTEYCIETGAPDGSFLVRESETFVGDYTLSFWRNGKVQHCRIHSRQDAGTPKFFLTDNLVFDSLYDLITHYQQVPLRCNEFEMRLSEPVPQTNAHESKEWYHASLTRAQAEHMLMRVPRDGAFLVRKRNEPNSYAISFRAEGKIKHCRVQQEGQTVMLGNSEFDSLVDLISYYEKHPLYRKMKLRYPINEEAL

TENC1 (Homo sapiens) = TENC1 (Homo sapiens) (UniProt Q63HR2); details: cited from earlier work
TENC1 (Homo sapiens), sequence (Q63HR2 1135-1252): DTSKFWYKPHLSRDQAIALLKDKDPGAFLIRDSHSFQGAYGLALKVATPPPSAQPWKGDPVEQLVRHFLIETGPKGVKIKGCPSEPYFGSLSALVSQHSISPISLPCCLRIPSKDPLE

BLK (Homo sapiens) = BLK (Homo sapiens) (UniProt P51451); details: cited from earlier work
BLK (Homo sapiens), sequence (P51451 119-225): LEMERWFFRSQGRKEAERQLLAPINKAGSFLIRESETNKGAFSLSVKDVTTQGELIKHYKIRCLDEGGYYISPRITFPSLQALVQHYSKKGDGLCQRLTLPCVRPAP

PLCG2-N (Homo sapiens) = PLCG2-N (Homo sapiens) (UniProt P16885); details: cited from earlier work
PLCG2-N (Homo sapiens), sequence (P16885 527-740): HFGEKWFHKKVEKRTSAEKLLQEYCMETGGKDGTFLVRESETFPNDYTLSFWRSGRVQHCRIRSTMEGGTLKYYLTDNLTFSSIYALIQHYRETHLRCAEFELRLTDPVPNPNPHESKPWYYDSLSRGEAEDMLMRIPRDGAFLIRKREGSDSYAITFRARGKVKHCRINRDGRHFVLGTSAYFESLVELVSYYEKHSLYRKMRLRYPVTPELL

SHC3 (Homo sapiens) = SHC3 (Homo sapiens) (UniProt Q92529); details: cited from earlier work
SHC3 (Homo sapiens), sequence (Q92529 494-594): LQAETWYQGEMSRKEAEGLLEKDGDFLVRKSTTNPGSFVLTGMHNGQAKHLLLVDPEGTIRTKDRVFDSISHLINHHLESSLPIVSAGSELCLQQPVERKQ

SOCS1 (Homo sapiens) = SOCS1 (Homo sapiens) (UniProt O15524); details: cited from earlier work
SOCS1 (Homo sapiens), sequence (O15524 74-179): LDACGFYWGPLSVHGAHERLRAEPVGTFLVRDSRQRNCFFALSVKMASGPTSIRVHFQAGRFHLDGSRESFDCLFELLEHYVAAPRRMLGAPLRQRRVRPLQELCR

SYK-NC (Homo sapiens) = SYK-NC (Homo sapiens) (UniProt P43405); details: cited from earlier work
PIK3R2-NC (Homo sapiens) = PIK3R2-NC (Homo sapiens) (UniProt O00459); details: cited from earlier work
PIK3R2-NC (Homo sapiens), sequence (O00459 325-721): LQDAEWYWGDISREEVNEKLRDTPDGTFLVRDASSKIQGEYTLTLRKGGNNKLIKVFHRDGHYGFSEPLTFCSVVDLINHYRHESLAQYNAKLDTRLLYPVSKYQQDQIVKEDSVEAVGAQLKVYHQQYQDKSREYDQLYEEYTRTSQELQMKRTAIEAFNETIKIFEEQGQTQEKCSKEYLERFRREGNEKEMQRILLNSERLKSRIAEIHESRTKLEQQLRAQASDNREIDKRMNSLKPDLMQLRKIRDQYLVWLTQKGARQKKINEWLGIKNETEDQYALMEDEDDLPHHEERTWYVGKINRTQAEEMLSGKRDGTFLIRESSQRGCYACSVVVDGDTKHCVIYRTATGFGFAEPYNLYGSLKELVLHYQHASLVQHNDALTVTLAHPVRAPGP

LYN (Homo sapiens) = LYN (Homo sapiens) (UniProt P07948); details: cited from earlier work
LYN (Homo sapiens), sequence (P07948 124-231): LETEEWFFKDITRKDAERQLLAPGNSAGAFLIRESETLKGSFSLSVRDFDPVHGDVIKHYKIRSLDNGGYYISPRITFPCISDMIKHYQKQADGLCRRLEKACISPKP

ITK SH2 domain (human) = ITK SH2 domain (human) (UniProt Q08881); assay: peptide or protein array; SH2/PTB proteins spotted on aldehyde slides, rhodamine peptide titrated in buffer B (20 mM HEPES, 100 mM KCl, 0.1% Tween-20, 5 mM DTT, pH 7.8), 1 h at room temperature; replicate assays
ITK SH2 domain (human), sequence (Q08881 239-338): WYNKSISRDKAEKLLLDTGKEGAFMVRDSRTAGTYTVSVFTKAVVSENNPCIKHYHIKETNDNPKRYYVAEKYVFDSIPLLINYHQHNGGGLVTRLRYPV

LCK SH2 domain (human) = LCK SH2 domain (human) (UniProt P06239); assay: as above
LCK SH2 domain (human), sequence (P06239 127-224): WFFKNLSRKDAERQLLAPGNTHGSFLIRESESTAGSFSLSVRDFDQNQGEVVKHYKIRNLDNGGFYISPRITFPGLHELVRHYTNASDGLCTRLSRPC

BLNK SH2 domain (human) = BLNK SH2 domain (human) (UniProt Q8WV28); assay: as above
BLNK SH2 domain (human), sequence (Q8WV28 346-453): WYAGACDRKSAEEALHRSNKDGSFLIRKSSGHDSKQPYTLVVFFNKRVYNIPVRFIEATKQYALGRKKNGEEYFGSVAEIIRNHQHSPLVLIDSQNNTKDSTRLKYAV

[1] = biological target: SH2D2A SH2 domain (human) (UniProt Q9NP31); assay: as above
SH2D2A SH2 domain (human), sequence (Q9NP31 95-186): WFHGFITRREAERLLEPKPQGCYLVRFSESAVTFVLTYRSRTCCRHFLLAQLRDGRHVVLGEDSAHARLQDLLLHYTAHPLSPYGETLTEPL

[2] = biological target: SH2D1A SH2 domain (human) (UniProt O60880); assay: as above
SH2D1A SH2 domain (human), sequence (O60880 6-104): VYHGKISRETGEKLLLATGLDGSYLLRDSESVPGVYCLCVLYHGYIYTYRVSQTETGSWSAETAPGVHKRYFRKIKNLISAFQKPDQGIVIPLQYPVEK

[3] = biological target: ZAP70 tandem SH2 domains (human); assay: as above
HCK SH2 domain (human) = HCK SH2 domain (human) (UniProt P08631); assay: as above
HCK SH2 domain (human), sequence (P08631 144-241): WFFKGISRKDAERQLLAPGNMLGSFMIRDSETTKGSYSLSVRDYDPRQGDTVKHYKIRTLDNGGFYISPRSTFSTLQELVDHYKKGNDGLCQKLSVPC

TEC SH2 domain (human) = TEC SH2 domain (human) (UniProt P42680); assay: as above
TEC SH2 domain (human), sequence (P42680 247-345): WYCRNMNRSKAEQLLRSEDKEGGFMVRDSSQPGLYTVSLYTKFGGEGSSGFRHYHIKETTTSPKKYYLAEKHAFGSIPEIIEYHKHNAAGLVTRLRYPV

[4] = biological target: SH2D3A SH2 domain (human) (UniProt Q9BRG2); assay: as above
SH2D3A SH2 domain (human), sequence (Q9BRG2 15-114): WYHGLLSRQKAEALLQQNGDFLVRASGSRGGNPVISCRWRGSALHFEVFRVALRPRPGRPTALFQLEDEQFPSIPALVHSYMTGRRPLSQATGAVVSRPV

NCK1 SH2 domain (human) = NCK1 SH2 domain (human) (UniProt P16333); assay: as above
[5] = biological target: RASA1 tandem SH2 domains (human); assay: as above
BLK SH2 domain (human) = BLK SH2 domain (human) (UniProt P51451); assay: as above
BLK SH2 domain (human), sequence (P51451 124-220): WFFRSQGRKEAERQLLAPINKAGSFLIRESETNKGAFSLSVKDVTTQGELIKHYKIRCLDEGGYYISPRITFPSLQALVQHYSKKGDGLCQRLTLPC

GRB7 (Homo sapiens), sequence (Q14451 426-532): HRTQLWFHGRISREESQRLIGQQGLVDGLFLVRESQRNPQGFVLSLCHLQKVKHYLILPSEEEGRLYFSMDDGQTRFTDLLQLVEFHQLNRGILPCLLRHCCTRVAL
TNS4 (Homo sapiens), sequence (Q8IZW8 444-561): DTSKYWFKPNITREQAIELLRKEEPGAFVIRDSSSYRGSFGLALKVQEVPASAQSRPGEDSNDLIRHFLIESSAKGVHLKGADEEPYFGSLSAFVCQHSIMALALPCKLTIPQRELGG

…pYLIPQQGFd
apparent Kd (screen) (GRB7 (Homo sapiens)): 2000 nM
apparent Kd (screen) (PIK3R3-N (Homo sapiens)): 722 nM
apparent Kd (screen) (TNS4 (Homo sapiens)): 922 nM

…pYLVPQQGF
apparent Kd (screen) (PLCG1-C (Homo sapiens)): 1460 nM
apparent Kd (screen) (TENC1 (Homo sapiens)): 2000 nM

…pYWDQDPPE
apparent Kd (screen) (BLK (Homo sapiens)): 2000 nM
apparent Kd (screen) (PLCG2-N (Homo sapiens)): 2000 nM
apparent Kd (screen) (SHC3 (Homo sapiens)): 1710 nM
apparent Kd (screen) (SOCS1 (Homo sapiens)): 1920 nM

…pYEEMRAFQ
apparent Kd (screen) (SYK-NC (Homo sapiens)): 1100 nM
apparent Kd (screen) (PIK3R2-NC (Homo sapiens)): 86 nM
apparent Kd (screen) (LYN (Homo sapiens)): 340 nM

ErbB4 pY1262 phosphopeptide, rhodamine-labelled, for protein microarrays
Kd (ITK SH2 domain (human)): 401 nM and 802 nM
Kd (LCK SH2 domain (human)): 214 nM and 375 nM
Kd (BLNK SH2 domain (human)): 1640 nM
Kd [1]: 1170 nM
Kd [2]: 413 nM and 591 nM
Kd [3]: 2710 nM and 1630 nM
Kd (HCK SH2 domain (human)): 827 nM
Kd (TEC SH2 domain (human)): 407 nM and 1190 nM
Kd [4]: 177 nM and 402 nM
Kd (NCK1 SH2 domain (human)): 574 nM and 643 nM
Kd [5]: 318 nM
Kd (BLK SH2 domain (human)): 170 nM and 540 nM
